According to publication PMC3047542, “Structure of HsdS Subunit from Thermoanaerobacter tengcongensis Sheds Lights on Mechanism of Dynamic Opening and Closing of Type I Methyltransferase” (PLoS ONE, 2011):

Target: T1, TTE-HsdS (wild type), specificity subunit of the type I methyltransferase from Thermoanaerobacter … (Thermoanaerobacter tengcongensis, UniProt Q8R9Q6 1-398)
T1 construct: HsdS specificity subunit of Thermoanaerobacter tengcongensis, ORF TTE1545, wild type; 398 amino acids (Met1-Leu398), MW 46.5 kDa; Cloned into site 1 of pET-DUET (with N-terminal His tag); source: E. coli BL21 (DE3), co-expressed with TTE-HsdM (wild type or mutant) from pET-DUET; not shown: His tag, N-terminal, kept
T1 sequence (looked up): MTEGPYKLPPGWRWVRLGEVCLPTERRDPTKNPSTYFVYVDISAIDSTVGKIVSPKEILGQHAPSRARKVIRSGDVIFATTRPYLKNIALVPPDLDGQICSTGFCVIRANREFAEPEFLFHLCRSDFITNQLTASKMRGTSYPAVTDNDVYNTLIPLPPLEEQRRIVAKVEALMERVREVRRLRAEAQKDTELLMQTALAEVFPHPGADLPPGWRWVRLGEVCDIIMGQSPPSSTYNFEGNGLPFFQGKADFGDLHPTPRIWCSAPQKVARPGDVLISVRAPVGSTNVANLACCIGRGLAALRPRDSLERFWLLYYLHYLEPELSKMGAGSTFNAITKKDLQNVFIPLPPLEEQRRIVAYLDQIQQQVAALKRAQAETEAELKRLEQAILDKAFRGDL
Test: AUC; analytical ultracentrifugation of the co-purified wild-type TTE-HsdS/TTE-HsdM complex; molecular weight 165 kDa
Conditions: both partners purified

B1: TTE-HsdM (wild type), modification subunit of the type I methyltransferase from Thermoanaerobacter tengcongensis (natural protein, UniProt Q8R9Q4 1-507, looked up)
chain: MNGPQTRESLANEIWRACDIMRRDNNCTGIMEYVEHLAWLLFLRFLDAQEEEWEAQAQIAGRPYTPIIDSEYRWRHWATKDWPADELLAFVHGRLIPYLRSLGGDPLRETIRSLFSERNVIVCASGYNLKDVIQIVNEINFHSQDDIFTVSQVYEELLRRLGNENRLAGEFYTPRPVVRFVVELVDPQIGEAVYDPACGTCGFLVEAYLWMKQKERTIEDHRILQERTFFGQEKKPVPAFLGLVNMMLHGVTVPRVMRRNTLEENIRNVSERFDVVVTNPPFGGTEGRHIQQNFPIQSNATELLFLQHIMKKLKPRDGARCGMVVPEGTLFRGGAFAEVKRDLLEQFNLHTVVSLPPGTFAPYSDVKTALIFFERPGPTKEIWYYELPLPEGLKKFSKGNPIQDEHFEEARKLWRGWDAYRKGLGPVEACLSERSWIVPVEEVKKRGYDLTARNPNRSGGEELPSPVEIVAGLLEKEREILSIMEELSELLENEKGNSSRKNDEEEE
notes: HsdM modification subunit of Thermoanaerobacter tengcongensis, ORF TTE1547, wild type; MW 58.5 kDa; Cloning site 2 of pET-DUET, without tag; Two copies in the M2S1 complex; Expressed alone it was insoluble
- stoichiometry N: 2 HsdM per HsdS
